Numbered stars: 1 amine (or outer) side, 2 acyl side, 3 side chain; on linkers, the order of the positions; unused ones are H or OH. Bridge positions count the residues as written; N and C are the ends. Side chains are listed from the residue outwards. Ends that are not written are not given here. * marks the point of attachment. C20 diacid = O=C(O)CCCCCCCCCCCCCCCCCCC(=O)*; γGlu = O=C(O)[C@H](CCC(=O)[*:2])N[*:1]
T1: human calcitonin receptor (human, UniProt P30988 25-474)
T1 construct: whole, on cells; Membranes in a scintillation proximity assay (Assay VII); also called hCTR; hCT
T1 sequence (looked up): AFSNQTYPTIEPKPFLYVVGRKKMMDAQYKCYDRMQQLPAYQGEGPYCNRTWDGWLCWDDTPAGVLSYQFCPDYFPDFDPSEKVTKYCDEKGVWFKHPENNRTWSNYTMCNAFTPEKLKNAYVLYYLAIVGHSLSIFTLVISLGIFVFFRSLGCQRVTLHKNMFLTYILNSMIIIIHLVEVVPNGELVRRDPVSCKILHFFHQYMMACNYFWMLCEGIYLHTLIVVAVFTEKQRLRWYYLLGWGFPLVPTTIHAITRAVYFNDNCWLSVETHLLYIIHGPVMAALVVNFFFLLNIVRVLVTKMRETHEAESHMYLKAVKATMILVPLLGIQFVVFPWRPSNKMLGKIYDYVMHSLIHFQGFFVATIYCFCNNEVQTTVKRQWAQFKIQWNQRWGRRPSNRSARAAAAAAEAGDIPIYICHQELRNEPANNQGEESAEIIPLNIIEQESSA

T2: human amylin receptor (amylin 3(a) receptor: human calcitonin receptor plus RAMP-3) (human, UniProt P30988 25-474; O60896 24-148)
T2 construct: whole, on cells; the species of RAMP-3 is told only through the name 'human amylin receptor'; also called hAmylin-R; hAmylinR
T2 sequence (looked up) 1: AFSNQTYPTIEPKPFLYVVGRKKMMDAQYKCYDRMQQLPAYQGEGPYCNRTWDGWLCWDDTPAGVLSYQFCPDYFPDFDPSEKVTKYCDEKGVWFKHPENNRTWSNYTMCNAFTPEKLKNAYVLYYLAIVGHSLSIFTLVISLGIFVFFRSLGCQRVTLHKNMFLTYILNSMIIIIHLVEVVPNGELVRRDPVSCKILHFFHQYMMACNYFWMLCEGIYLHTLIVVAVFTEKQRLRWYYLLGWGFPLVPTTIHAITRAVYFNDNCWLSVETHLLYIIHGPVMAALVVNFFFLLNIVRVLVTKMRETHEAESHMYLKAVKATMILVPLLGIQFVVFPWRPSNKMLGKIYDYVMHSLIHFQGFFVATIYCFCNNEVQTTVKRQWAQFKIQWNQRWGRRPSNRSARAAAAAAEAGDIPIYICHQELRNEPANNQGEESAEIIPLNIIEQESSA
T2 sequence (looked up) 2: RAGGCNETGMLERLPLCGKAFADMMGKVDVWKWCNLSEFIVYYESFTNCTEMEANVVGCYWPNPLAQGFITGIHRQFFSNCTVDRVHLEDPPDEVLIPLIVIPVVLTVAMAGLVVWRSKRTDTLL

T3: human calcitonin receptor (human, UniProt P30988 25-474)
T3 construct: whole, on cells; also called hCTR; hCT
T3 sequence (looked up): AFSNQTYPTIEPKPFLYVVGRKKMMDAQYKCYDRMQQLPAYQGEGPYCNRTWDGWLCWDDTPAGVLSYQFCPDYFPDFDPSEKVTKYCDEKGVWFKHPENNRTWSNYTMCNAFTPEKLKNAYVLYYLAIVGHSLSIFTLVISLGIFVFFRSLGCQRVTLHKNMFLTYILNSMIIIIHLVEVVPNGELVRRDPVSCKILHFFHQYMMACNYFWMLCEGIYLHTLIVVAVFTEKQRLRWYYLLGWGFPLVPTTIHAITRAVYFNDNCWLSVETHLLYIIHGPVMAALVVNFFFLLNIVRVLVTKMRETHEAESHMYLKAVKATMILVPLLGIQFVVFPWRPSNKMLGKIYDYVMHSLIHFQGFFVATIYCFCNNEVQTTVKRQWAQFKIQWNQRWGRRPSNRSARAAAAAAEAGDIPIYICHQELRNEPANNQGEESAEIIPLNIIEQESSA

B1: N^ε1-[(4S)-4-carboxy-4-[[(4S)-4-carboxy-4-(19-carboxynonadecanoylamino)butanoyl]amino]butanoyl]-[Glu14,Arg17,Pro21,Pro27,Pro34,Phe37]-h-amylin (peptide)
peptide: K([γGlu-γGlu-C20 diacid])CNTATCATQRLAEFLRHSSPNFGAIPSSTNVGPNTF-NH2
modifications: disulfide 2-7 (inferred)
B2: N^α1-[2-[2-[2-[[2-[2-[2-[[(4S)-4-carboxy-4-(19-carboxynonadecanoylamino)butanoyl]amino]ethoxy]ethoxy]acetyl]amino]ethoxy]ethoxy]acetyl]-[Arg17,Pro21,Pro27]-h-am … (peptide)
peptide: KCNTATCATQRLANFLRHSSPNFGAIPSSTNVGSNTY
modifications: C20 diacid-gGlu-2xOEG on the alpha amino group of the N-terminal residue; disulfide bridge Cys2-Cys7; C-terminal amide
notes: also called compound 24

How the values were obtained:
[1] = target: T1, human calcitonin receptor; experiment: ratio of IC50 at human calcitonin receptor to IC50 at human amylin receptor (reference), SPA binding assays
Experimental: The resulting pellet was resuspended, homogenized and centrifuged (20.000 rpm, 15 min) in a buffer containing 20 mM Na-HEPES and 0.1 mM EDTA (pH 7.4, buffer 2). The resulting pellet was resuspended in buffer 2 and protein concentration was measured (BCA protein Assay, Pierce). The homogenate was kept cold during the whole procedure. The membranes were kept at −80° C. until use. The assay was performed in a 384 well Optiplate (PerkinElmer) in a total volume of 40 ul. Membranes were mixed with SPA beads. Final concentration of membranes 35 ng/μL final and SPA beads was 0.05 mg/well. Test-compounds were dissolved in DMSO and further diluted in assay buffer (50 mM Hepes, pH 7.4, 1 mM CaCl2, 5 mM MgCl₂, 0.1% OA and 0.02% Tween20). […] The final mixture was incubated with shaking at 400 rpm for 120 min at 25° C. prior to centrifugation (1500 rpm, 10 min). Samples were analyzed on TopCounter™ (Packard). The IC₅₀ was calculated using (one site binding competition analysis) GraphPad Prism5 as a measure of receptor affinity.
Membranes were prepared in the following way; the cells were rinsed with PBS and incubated with Versene for approximately 5 min before harvesting. The cells were flushed with PBS and the cell-suspension was centrifuged for 5 min at 1000 rpm. Cells were homogenized (Ultrathurrax) in a buffer containing 20 mM Na-HEPES and 10 mM EDTA (pH 7.4) and centrifuged at 20.000 rpm for 15 min. The resulting pellet was resuspended, homogenized and centrifuged (20.000 rpm, 15 min) in a buffer containing 20 mM Na-HEPES and 0.1 mM EDTA (pH 7.4, buffer 2). The resulting pellet was resuspended in buffer 2 and protein concentration was measured (BCA protein Assay, Pierce). The homogenate was kept cold during the whole procedure. The membranes were kept at −80° C. until use. Assay was performed in a 384 well Optiplate (PerkinElmer) in a total volume of 40 ul. Membranes were mixed with SPA beads.

[2] = target: T1, human calcitonin receptor; experiment: SPA competition binding, displacement of 125I-calcitonin from membranes with human calcitonin receptor (Assay VII)
Experimental: Membranes were prepared in the following way; the cells were rinsed with PBS and incubated with Versene for approximately 5 min before harvesting. The cells were flushed with PBS and the cell-suspension was centrifuged for 5 min at 1000 rpm. Cells were homogenized (Ultrathurrax) in a buffer containing 20 mM Na-HEPES and 10 mM EDTA (pH 7.4) and centrifuged at 20.000 rpm for 15 min. The resulting pellet was resuspended, homogenized and centrifuged (20.000 rpm, 15 min) in a buffer containing 20 mM Na-HEPES and 0.1 mM EDTA (pH 7.4, buffer 2). The resulting pellet was resuspended in buffer 2 and protein concentration was measured (BCA protein Assay, Pierce). The homogenate was kept cold during the whole procedure. The membranes were kept at −80° C. until use. Assay was performed in a 384 well Optiplate (PerkinElmer) in a total volume of 40 ul. Membranes were mixed with SPA beads. Final concentration of membranes 35 ng/μL final and Final concentration of SPA beads was 0.05 mg/well. Test-compounds were dissolved in DMSO and further diluted in assay buffer (50 mM Hepes, pH 7.4, 1 mM CaCl2, 5 mM MgCl₂, 0.1% OA and 0.02% Tween20). […] The final mixture was incubated for 120 min with shaking at 400 rpm at 25° C. prior to centrifugation (1500 rpm, 10 min). Samples were analyzed on TopCounter™ (Packard). The […] was calculated using (one site binding competition analysis) GraphPad Prism5 as a measure of receptor affinity.

[3] = target: T2, human amylin receptor (amylin 3(a) …); experiment: SPA competition binding, membranes with human amylin 3(a) receptor, displacement of 125I-rat amylin (Assay V)
Experimental: The binding assay was performed using scintillation proximity assay (SPA) beads (RPNQ0001) from PerkinElmer and cell membranes from the Amylin 3(a)/CRE-luc cells (as described in Assay (II)) were used. Membranes were prepared in the following way; the cells were rinsed with PBS and incubated with Versene for approximately 5 min before harvesting. The cells were flushed with PBS and the cell-suspension was centrifuged for 5 min at 1000 rpm. Cells were homogenized (ultrathurrax) in a buffer containing 20 mM Na-HEPES and 10 mM EDTA (pH 7.4) and centrifuged at 20.000 rpm for 15 min. The resulting pellet was resuspended, homogenized and centrifuged (20.000 rpm, 15 min) in a buffer containing 20 mM Na-HEPES and 0.1 mM EDTA (pH 7.4, buffer 2). The resulting pellet was resuspended in buffer 2 and protein concentration was measured (BCA protein Assay, Pierce). The homogenate was kept cold during the whole procedure. The membranes were kept at −80° C. until use. The assay was performed in a 384 well Optiplate (PerkinElmer) in a total volume of 40 ul. Membranes were mixed with SPA beads. Final concentration of membranes 35 ng/μL final and SPA beads was 0.05 mg/well. Test-compounds were dissolved in DMSO and further diluted in assay buffer (50 mM Hepes, pH 7.4, 1 mM CaCl2, 5 mM MgCl₂, 0.1% OA and 0.02% Tween20). […] The final mixture was incubated with shaking at 400 rpm for 120 min at 25° C. prior to centrifugation (1500 rpm, 10 min). Samples were analyzed on TopCounter™ (Packard). The IC₅₀ was calculated using (one site binding competition analysis) GraphPad Prism5 as a measure of receptor affinity.

[4] = target: T3, human calcitonin receptor; experiment: SPA competition binding, membranes with human calcitonin receptor, displacement of 125I-calcitonin (Assay VII)
How it was run: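 BHK hCTR membranes 35 ng/μL + SPA beads 0.05 mg/well; buffer 50 mM Hepes pH 7.4, 1 mM CaCl2, 5 mM MgCl₂, 0.1% OA, 0.02% Tween20. 120 min, 25° C., shaking. Scintillation count; IC50 by one-site binding competition.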

[5] = target: T3, human calcitonin receptor; experiment: ratio of IC50 at hCTR to IC50 at the human amylin receptor (reference)
How it was run: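 Competition binding by SPA with cell membranes (35 ng/μL) and SPA beads in 50 mM Hepes pH 7.4 with 1 mM CaCl2, 5 mM MgCl2, 0.1% OA and 0.02% Tween20. Incubated 120 min at 25 °C with shaking, then counted.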

Binder | Ratio hCT/hAmylin binding [1] | IC50 [2] [nM] | IC50 [3] [nM] | IC50 [4] [nM] | Ratio hCT/hAmylin binding [5]
B1 | 18 | 2.73 | – | – | –
B2 | – | – | 1.14 | 102 | 90

Reference: patent publication US20140087995A1 (published 2014)
